{
  "source": "patent US20260265329A1",
  "about": "“POLYPEPTIDE AND DERIVATIVE THEREOF, COMPOSITION, AND USE THEREOF” (HANGZHOU SCIWIND BIOSCIENCES CO., LTD., priority 2023, published 2026)",
  "origin": "cited, not measured here",
  "key": {"[1]": {"settings": "cited from earlier work"}, "[2]": {"settings": "in vivo, background statement; cited from earlier work"}},
  "note": "No end group written: not given here.",
  "data": [
    {"substance": "Amylin (KCNTATCATQRLANFLVHSSNNFGAILSSTNVGSNTY; not fully specified (C-terminus, bridges); cysteine pairing not given here; UniProt P10997 34-70, looked up) [polypeptide hormone consisting of 37 amino acids, member of the calcitonin protein family]", "values": [
      {"measurement": "fibrillation", "setting": "[1]; background statement", "value": "strong tendency towards fibrillation"},
      {"measurement": "chemical stability", "setting": "[1]; pH 7, background statement", "value": "chemical instability at pH 7"},
      {"measurement": "half-life", "setting": "[2]", "value": "short half-life in vivo"}
    ]}
  ]
}
